# Biological target: the molecule itself
# Test: AFM + other: TEM; peptides in water at pH ≈ 5, sonicated 10 min, annealed at 80° for 30 min; AFM on mica at 1 mM, dry tapping mode; TEM at 10 μM, negative staining with uranyl acetate
row,Protein,binding result
1,"EFEFEFEFEFEFE (designed amphiphilic peptide, E6 with one more glutamic acid at the N-terminus; In the coassemblies it stood as pre-formed, sonicated self-assembled fibres; also called E7 fibers; E7 self-assembled fibers) [E7 peptide]",binds
2,"FEFEFEFEFEFE (designed amphiphilic peptide, six repeats of the dipeptide Phe-Glu; Forms supramolecular fibres; also called (FE)n with n = 6) [6-repeat peptide (FE)6, E6]",binds
3,"EEFEFEFEFEFEFEE (designed amphiphilic peptide, E6 with additional glutamic acids at both termini) [E9 peptide]",binds

# From paper PMC12060649, “Tuning the Dimensionality of Protein–Peptide Coassemblies to Build 2D Conductive Nanomaterials” (ACS Nano, 2025)
